Assay results taken from patent publication US20240000837A1.

Biological target: HLA-C1 expressed in the tumor cell membrane (HLA class I on Panc0203 / HPAC tumor cells) (human)
Assay: flow cytometry on Panc02.03 cells, PE-conjugated anti-Fc secondary staining

percent of cells bound: > 60%
Substance: fusion protein encompassing the extracellular domain of KIR2DL2 linked to the Fc portion of an antibody (KIR2DL2-Fc) (from UniProt P43627 22-245) (Fc fusion)
